Laboratory results published in patent US20160303255, “COMPOSITIONS AND METHODS FOR TREATMENT OF MUSCULAR DYSTROPHY” (CONSIGLIO NAZIONALE DELLE RICHERCHE, published 2016).

Target: JZif1 (artificial (human Zif268/EGR1 derived), UniProt P18146 SEQ:1-543)
Test: cell_activity; luciferase induction in HeLa, pXP-Luc (about 318 bp human utrophin promoter A); also active in C2C7 (FIG. 8)
Settings: tags: none
Method: To investigate the ability of JZif1, JZif2, Vp16-CJ7-UtroUp, Vp16-Bagly and Vp16-Jazz to upregulate (i.e., increase) expression from the utrophin promoter “A”, their ability to drive expression of a luciferase reporter gene placed downstream of a utrophin promoter “A” fragment was tested.
To test the ability of these artificial transcription factors to increase expression from the utrophin promoter “A” in human cells, HeLa cells were co-transfected with a plasmid carrying JZif1, JZif2, Vp16-CJ7-UtroUp, Vp16-Bagly or Vp16-Jazz under control of the cytomegalovirus (CMV) promoter together with the luciferase reporter construct plasmid pXP-Luc (pXP). JZif1, JZif2, Vp16-CJ7-UtroUp, Vp16-Bagly and Vp16-Jazz were each able to increase luciferase expression relative to controls (FIG. 7). […] By comparison, no increase in luciferase expression was detected when the pXP plasmid was co-transfected with a plasmid carrying the zinc finger domain of Jazz without a transcriptional activation domain, with a plasmid carrying the genomically-encoded human transcription factor Zif268's transcription activation domain without its zinc finger motifs, or with a plasmid carrying the transcriptional activation domain of Vp16 without a zinc finger DNA binding domain, which served as controls (FIG. 7). […]

Sequence of JZif1 (P18146 other isoform, or with tags, fused parts or gaps): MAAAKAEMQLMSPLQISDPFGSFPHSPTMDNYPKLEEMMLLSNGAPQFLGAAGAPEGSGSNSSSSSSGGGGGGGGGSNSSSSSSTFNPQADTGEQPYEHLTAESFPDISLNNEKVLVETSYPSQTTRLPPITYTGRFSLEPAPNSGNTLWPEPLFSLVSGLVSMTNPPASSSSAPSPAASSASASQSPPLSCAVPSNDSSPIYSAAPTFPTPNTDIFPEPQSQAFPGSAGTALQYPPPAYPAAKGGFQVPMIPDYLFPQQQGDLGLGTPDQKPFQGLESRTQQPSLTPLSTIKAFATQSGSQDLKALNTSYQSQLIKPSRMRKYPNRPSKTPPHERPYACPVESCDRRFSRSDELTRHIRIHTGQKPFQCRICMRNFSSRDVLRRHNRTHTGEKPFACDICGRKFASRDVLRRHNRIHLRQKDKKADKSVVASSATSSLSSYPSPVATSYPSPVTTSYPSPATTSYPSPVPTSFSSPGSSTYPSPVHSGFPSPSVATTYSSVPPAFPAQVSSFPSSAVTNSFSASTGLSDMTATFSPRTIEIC

B1: Jazz/JZif1 target in human utrophin promoter A (dsDNA)
DNA 1: GCTGCTGCG
DNA 2: CGCAGCAGC
- activity: > 20 fold
